Results from publication PMC7292776.

Target: typhoid toxin PltB homopentamer (S. Typhi PltB, wild type) (Salmonella enterica serovar Typhi) (UniProt Q8Z6A3)
Test: crystal structure

typhoid toxin PltB homopentamer (S. Typhi PltB, wild type) (from UniProt Q8Z6A3 1-137) (natural protein)
stoichiometry N: 5
